Data on 4 substances can be found in publication PMC7026663.

The target in experiment [1] is nucleosome core particle (NCP). Description: AUC.
Experiment [2] has as its target nucleosome core particle (NCP). The experiment is described as follows: ITC. (In ITC the heat of successive injections is recorded.)
Experiment [3] addresses nucleosome core particle (NCP). Description: native gel or EMSA.
The target of experiment [4] is GST-tagged AtFKBP53 NTD (Arabidopsis thaliana).
The target in experiment [5] is AtFKBP53 NTD (residues 1–112) (Arabidopsis thaliana) (UniProt Q93ZG9). The experiment is described as follows: AUC.
Sequence of AtFKBP53 NTD (residues 1–112) (Arabidopsis thaliana) (Q93ZG9 1-112): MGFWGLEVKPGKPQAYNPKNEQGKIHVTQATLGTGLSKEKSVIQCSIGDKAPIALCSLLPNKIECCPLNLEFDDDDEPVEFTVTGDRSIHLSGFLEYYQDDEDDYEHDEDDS

Sequence of AtFKBP53 NTD (residues 1–112) (Q93ZG9 1-112): as above
Sequence of GST-tagged AtFKBP53 NTD (domain or fragment) (Q93ZG9 whole entry, the tested form may be a part): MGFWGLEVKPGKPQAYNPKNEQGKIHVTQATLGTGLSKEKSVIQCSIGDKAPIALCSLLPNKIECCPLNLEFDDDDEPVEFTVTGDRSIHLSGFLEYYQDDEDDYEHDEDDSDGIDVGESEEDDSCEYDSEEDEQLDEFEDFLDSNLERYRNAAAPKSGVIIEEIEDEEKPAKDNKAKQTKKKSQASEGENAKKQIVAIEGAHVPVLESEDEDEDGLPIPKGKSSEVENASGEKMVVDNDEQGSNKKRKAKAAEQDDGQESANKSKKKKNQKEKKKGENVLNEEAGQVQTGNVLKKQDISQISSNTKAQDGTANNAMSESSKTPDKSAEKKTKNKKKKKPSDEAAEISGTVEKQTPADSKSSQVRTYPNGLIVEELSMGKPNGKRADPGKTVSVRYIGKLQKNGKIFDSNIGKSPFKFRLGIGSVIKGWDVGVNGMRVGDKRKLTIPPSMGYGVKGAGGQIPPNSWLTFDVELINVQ

Take “AtFKBP53 NTD (residues 1–112) (from UniProt Q93ZG9 1-112) (domain or fragment)”: the stoichiometry N (NTD pentamers per NCP) in experiment [1] worked out at 2. In experiment [2], this substance had a Kd1 (first site, sequential binding model) of 0.18 µM; a Kd2 (second site, sequential binding model) of 2.72 µM; a stoichiometry N (binding sites on NCP) of 2. Also, the stoichiometry N (NTD pentamers per NCP) in experiment [3] came to 2.

As usually defined, the stoichiometry N is the number of molecules, sites or subunits per partner or assembly. As for “GST-tagged AtFKBP53 NTD (domain or fragment)”, in experiment [4], the stoichiometry N amounted to 2.

In experiment [5], “H2A/H2B dimer (from UniProt P06897;P02281) (complex)” displayed a stoichiometry N (H2A/H2B dimer per NTD pentamer) of 1.

In turn, “H3/H4 tetramer (from UniProt P84233;P62799) (complex)” registered a stoichiometry N (H3/H4 tetramer per NTD pentamer) in experiment [5] of 1.
